Laboratory results as given in article PMC11087256, “Interferon-induced transmembrane protein-1 competitively blocks Ephrin receptor A2-mediated Epstein–Barr virus entry into epithelial cells” (Nature Microbiology, 2024).
“And” between values parts separate entries of the source, which are not always exact repeats. Equal entries are not always repeated.

Tests used:
GST-EphA2 [1] = target: T1, GST-EphA2 (UniProt P29317 24-976); assay: ELISA; 200 ng GST-EphA2 coated on 96-well plates overnight at 4 °C, blocked with 5% BSA in PBS; gradient concentrations of 6×His proteins, 2 h at room temperature; anti-His or anti-GST antibody, HRP secondary, absorbance at 450 nm; settings: both partners purified
T1 construct: EphA2; The methods name both pGEX6p-1-GST/His and pET28a as the vector; also called glutathione S-transferase (GST)-EphA2

GST-EphA2 [2] = target: T1, GST-EphA2; assay: ELISA; as the ELISA on GST-EphA2-coated plates, gH/gL or gB incubated in the presence of IFITM1 (concentration of IFITM1 not stated); settings: both partners purified

B1: 6×His-gB (natural protein)
chain: AQTPEQPAPPATTVQPTATRQQTSFPFRVCELSSHGDLFRFSSDIQCPSFGTRENHTEGLLMVFKDNIIPYSFKVRSYTKIVTNILIYNGWYADSVTNRHEEKFSVDSYETDQMDTIYQCYNAVKMTKDGLTRVYVDRDGVNITVNLKPTGGLANGVRRYASQTELYDAPGWLIWTYRTRTTVNCLITDMMAKSNSPFDFFVTTTGQTVEMSPFYDGKNKETFHERADSFHVRTNYKIVDYDNRGTNPQGERRAFLDKGTYTLSWKLENRTAYCPLQHWQTFDSTIATETGKSIHFVTDEGTSSFVTNTTVGIELPDAFKCIEEQVNKTMHEKYEAVQDRYTKGQEAITYFITSGGLLLAWLPLTPRSLATVKNLTELTTPTSSPPSSPSPPAPSAARGSTPAAVLRRRRRDAGNATTPVPPTAPGKSLGTLNNPATVQIQFAYDSLRRQINRMLGDLARAWCLEQKRQNMVLRELTKINPTTVMSSIYGKAVAAKRLGDVISVSQCVPVNQATVTLRKSMRVPGSETMCYSRPLVSFSFINDTKTYEGQLGTDNEIFLTKKMTEVCQATSQYYFQSGNEIHVYNDYHHFKTIELDGIATLQTFISLNTSLIENIDFASLELYSRDEQRASNVFDLEGIFREYNFQAQNIAGLRKDLDNAVSNGRNQFVDGLGELMDSLGSVGQSITNLVSTVGGLFSSLVSGFISFFKNPFGGMLILVLVAGVVILVISLTRRTRQMSQQPVQMLYPGIDELAQQHASGEGPGINPISKTELQAIMLALHEQNQEQKRAAQRAAGPSVASRALQAARDRFPGLRRRRYHDPETAAALLGEAETEF
- EC50 (GST-EphA2 [1]): 41.7 nM and 39.6 nM
- EC50 with IFITM1 (GST-EphA2 [2]): 84.3 nM
